Tested on: PC-3 human tumor xenografts
Test: in vivo
Experimental: In vivo pharmacokinetic studies in human tumor bearing SCID mice. […] The xenograft models were produced by bilateral flank inoculation of 5×10^6 cells (PC-3 or MDA-MB-231 cells) per site. Four to six weeks post inoculation, palpable tumors were observed. At this point, the mice were injected with 4 μCi of the complex in […] of isotonic saline via the tail vein. The mice were euthanized and tissues and organs were excised from the animals at selected times post-injection (p.i.), including 15 minutes, 30 minutes, 1 hour, 4 hours, 24 hours, 48 hours, and 72 hours p.i. Subsequently, the tissues and organs were weighed and counted in a NaI well counter and the percent injected dose (% ID) and % ID/g of each organ or tissue calculated.
The mice were injected with 4 μCi of the complex in 100 μL of isotonic saline via the tail vein. The mice were euthanized by cervical dislocation. Tissues and organs were excised from the animals following at 1 hour, 4 hour, and 24 hours post-injection (p.i.). Subsequently, the tissues and organs were weighed and counted in a NaI well counter and the percent injected dose (% ID) and % ID/g of each organ or tissue calculated.

CSCC[C@H](NC(=O)[C@H](CC(C)C)NC(=O)[C@H](Cc1cnc[nH]1)NC(=O)CNC(=O)[C@@H](NC(=O)[C@H](C)NC(=O)[C@H](Cc1c[nH]c2ccccc12)NC(=O)[C@H](CCC(N)=O)NC(=O)CCCCCCCNC(=O)CN1CCN(CC(=O)O)CCN(CC(=O)O)CCN(CC(=O)O)CC1)C(C)C)C(N)=O [90Y-DOTA-8-Aoc-BBN[7-14]NH2] [metal not drawn]
Avg % ID, Blood (1 hr): 0.56 ± 0.20 % ID
Avg % ID, Carcass (1 hr): 0.62 ± 0.44 % ID
Avg % ID, Kidney (1 hr): 1.22 ± 0.46 % ID
Avg % ID, L. Intestine (1 hr): 2.44 ± 0.66 % ID
Avg % ID, Lung (1 hr): 0.06 ± 0.03 % ID
Avg % ID, Muscle (1 hr): 0.02 ± 0.02 % ID
Avg % ID, Pancreas (1 hr): 5.70 ± 1.60 % ID
Avg % ID, S. Intestine (1 hr): 4.65 ± 0.98 % ID
Avg % ID, Spleen (1 hr): 0.07 ± 0.04 % ID
Avg % ID, Urine (1 hr): 57.73 ± 14.52 % ID
Avg % ID/gm, Blood (1 hr): 0.34 ± 0.12 % ID/gm
Avg % ID/gm, Heart (1 hr): 0.10 ± 0.11 % ID/gm
Avg % ID/gm, Lung (1 hr): 0.22 ± 0.12 % ID/gm
Avg % ID/gm, Muscle (1 hr): 0.15 ± 0.19 % ID/gm
Avg % ID/gm, Pancreas (1 hr): 24.73 ± 4.97 % ID/gm
Avg % ID/gm, Spleen (1 hr): 1.09 ± 0.67 % ID/gm
Avg % ID/gm, Stomach (1 hr): 1.34 ± 0.64 % ID/gm
Avg % ID/gm, Tumor (1 hr): 2.95±0.99 % ID/gm
Avg % ID, Blood (4 hrs): 0.09 ± 0.13 % ID
Avg % ID, Carcass (4 hrs): 0.14 ± 0.11 % ID
Avg % ID, Kidney (4 hrs): 0.54 ± 0.25 % ID
Avg % ID, L. Intestine (4 hrs): 3.33 ± 0.71 % ID
Avg % ID, Liver (4 hrs): 0.19 ± 0.13 % ID
Avg % ID, Pancreas (4 hrs): 3.42 ± 0.82 % ID
Avg % ID, S. Intestine (4 hrs): 2.06 ± 1.27 % ID
Avg % ID, Spleen (4 hrs): 0.02 ± 0.03 % ID
Avg % ID, Stomach (4 hrs): 0.18 ± 0.06 % ID
Avg % ID, Tumor (4 hrs): 0.34 ± 0.22 % ID
Avg % ID, Urine (4 hrs): 67.02 ± 16.74 % ID
Avg % ID/gm, Blood (4 hrs): 0.05 ± 0.07 % ID/gm
Avg % ID/gm, Heart (4 hrs): 0.10 ± 0.14 % ID/gm
Avg % ID/gm, Kidney (4 hrs): 1.68 ± 0.76 % ID/gm
Avg % ID/gm, L. Intestine (4 hrs): 5.17 ± 1.85 % ID/gm
Avg % ID/gm, Liver (4 hrs): 0.18 ± 0.12 % ID/gm
Avg % ID/gm, Lung (4 hrs): 0.07 ± 0.07 % ID/gm
Avg % ID/gm, Muscle (4 hrs): 0.07 ± 0.13 % ID/gm
Avg % ID/gm, Pancreas (4 hrs): 14.02 ± 4.89 % ID/gm
Avg % ID/gm, S. Intestine (4 hrs): 1.66 ± 0.91 % ID/gm
Avg % ID/gm, Stomach (4 hrs): 0.55 ± 0.16 % ID/gm
Avg % ID/gm, Tumor (4 hrs): 1.98±0.66 % ID/gm
Avg % ID, Blood (24 hrs): 0.12 ± 0.14 % ID
Avg % ID, Feces (24 hrs): 10.71 ± 8.29 % ID
Avg % ID, Heart (24 hrs): 0.00 ± 0.00 % ID
Avg % ID, Kidney (24 hrs): 0.17 ± 0.09 % ID
Avg % ID, L. Intestine (24 hrs): 1.11 ± 0.75 % ID
Avg % ID, Liver (24 hrs): 0.10 ± 0.03 % ID
Avg % ID, Lung (24 hrs): 0.00 ± 0.00 % ID
Avg % ID, Muscle (24 hrs): 0.00 ± 0.01 % ID
Avg % ID, S. Intestine (24 hrs): 0.51 ± 0.20 % ID
Avg % ID, Tumor (24 hrs): 0.16 ± 0.09 % ID
Avg % ID, Urine (24 hrs): 67.62 ± 17.26 % ID
Avg % ID/gm, Blood (24 hrs): 0.07 ± 0.08 % ID/gm
Avg % ID/gm, Heart (24 hrs): 0.00 ± 0.00 % ID/gm
Avg % ID/gm, Kidney (24 hrs): 0.51 ± 0.25 % ID/gm
Avg % ID/gm, L. Intestine (24 hrs): 1.27 ± 0.92 % ID/gm
Avg % ID/gm, Liver (24 hrs): 0.08 ± 0.03 % ID/gm
Avg % ID/gm, Lung (24 hrs): 0.01 ± 0.02 % ID/gm
Avg % ID/gm, Muscle (24 hrs): 0.02 ± 0.03 % ID/gm
Avg % ID/gm, Pancreas (24 hrs): 1.80 ± 0.57 % ID/gm
Avg % ID/gm, Spleen (24 hrs): 0.11 ± 0.13 % ID/gm
Avg % ID/gm, Stomach (24 hrs): 0.09 ± 0.07 % ID/gm
Avg % ID/gm, Tumor (24 hrs): 1.08±0.37 % ID/gm
Avg % ID, Blood (48 hrs): 0.10 ± 0.14 % ID
Avg % ID, Carcass (48 hrs): 0.11 ± 0.17 % ID
Avg % ID, Heart (48 hrs): 0.02 ± 0.02 % ID
Avg % ID, Kidney (48 hrs): 0.10 ± 0.04 % ID
Avg % ID, Pancreas (48 hrs): 0.15 ± 0.04 % ID
Avg % ID, S. Intestine (48 hrs): 0.16 ± 0.06 % ID
Avg % ID, Tumor (48 hrs): 0.11 ± 0.07 % ID
Avg % ID, Urine (48 hrs): 76.74 ± 21.06 % ID
Avg % ID/gm, Blood (48 hrs): 0.06 ± 0.08 % ID/gm
Avg % ID/gm, Heart (48 hrs): 0.14 ± 0.19 % ID/gm
Avg % ID/gm, Kidney (48 hrs): 0.29 ± 0.12 % ID/gm
Avg % ID/gm, L. Intestine (48 hrs): 0.77 ± 0.15 % ID/gm
Avg % ID/gm, Muscle (48 hrs): 0.07 ± 0.13 % ID/gm
Avg % ID/gm, Pancreas (48 hrs): 0.59 ± 0.14 % ID/gm
Avg % ID/gm, S. Intestine (48 hrs): 0.13 ± 0.04 % ID/gm
Avg % ID/gm, Spleen (48 hrs): 0.09 ± 0.24 % ID/gm
Avg % ID/gm, Tumor (48 hrs): 0.58 ± 0.30 % ID/gm
Avg % ID, Blood (72 hrs): 0.11 ± 0.15 % ID
Avg % ID, Carcass (72 hrs): 0.10 ± 0.11 % ID
Avg % ID, Kidney (72 hrs): 0.13 ± 0.07 % ID
Avg % ID, Liver (72 hrs): 0.08 ± 0.11 % ID
Avg % ID, Lung (72 hrs): 0.00 ± 0.01 % ID
Avg % ID, Pancreas (72 hrs): 0.08 ± 0.05 % ID
Avg % ID, S. Intestine (72 hrs): 0.11 ± 0.07 % ID
Avg % ID, Spleen (72 hrs): 0.02 ± 0.01 % ID
Avg % ID, Tumor (72 hrs): 0.06 ± 0.06 % ID
Avg % ID, Urine (72 hrs): 82.97 ± 25.39 % ID
Avg % ID/gm, Blood (72 hrs): 0.06 ± 0.09 % ID/gm
Avg % ID/gm, Kidney (72 hrs): 0.43 ± 0.29 % ID/gm
Avg % ID/gm, L. Intestine (72 hrs): 0.47 ± 0.24 % ID/gm
Avg % ID/gm, Liver (72 hrs): 0.08 ± 0.11 % ID/gm
Avg % ID/gm, Lung (72 hrs): 0.02 ± 0.03 % ID/gm
Avg % ID/gm, Muscle (72 hrs): 0.08 ± 0.19 % ID/gm
Avg % ID/gm, Pancreas (72 hrs): 0.27 ± 0.17 % ID/gm
Avg % ID/gm, S. Intestine (72 hrs): 0.08 ± 0.05 % ID/gm
Avg % ID/gm, Spleen (72 hrs): 0.28 ± 0.26 % ID/gm
Avg % ID/gm, Stomach (72 hrs): 0.07 ± 0.03 % ID/gm
Avg % ID/gm, Tumor (72 hrs): 0.46 ± 0.48 % ID/gm

— patent publication US20060067886A1, “Gastrin receptor-avid peptide conjugates” (priority 1997, published 2006)
